Values joined by “and” are separate entries in the source; they are usually repeats but may differ in a detail not shown here. Equal entries are not always repeated.

Data set [1] concerns the molecule itself. Nature of the data set: SEC-MALS; Superdex 200 Increase 10/300 GL, HS buffer (10 mM HEPES, 150 mM NaCl, pH 7.5) after salt jump and 1 h at 37 °C; injected 0.79 mg/mL rod, 0.55 mg/mL ΔNrod, 1.52 mg/mL coil1B.
Data set [2] concerns the molecule itself. Nature of the data set: cross-linking; truncated fragments 0.4 mg/mL in HS conditions (10 mM HEPES, 150 mM NaCl, pH 7.5); DSG and DSBU; reducing SDS-PAGE.

B1: vimentin rod domain (residues 93-404) (domain or fragment)
chain: not shown
notes: vimentin, human, rod domain, residues 93-404; theoretical monomer mass printed as 36.9 kDa; also called rod fragment; rod construct; source: denatured in 8 M urea and re-natured by step-wise dialysis before analysis
The stoichiometry N is a count of units in the complex or per binding partner. On to B1, for which the “stoichiometry N” value in data set [1] and in data set [2] was 4 in each case.

B2: vimentin coil1B construct (residues 150-249) (domain or fragment)
chain: not shown
notes: vimentin, human, coil1B, residues 150-249; theoretical monomer mass printed as 12.1 kDa; also called coil1B fragment; source: denatured in 8 M urea and re-natured by step-wise dialysis before analysis
Take B2: the “stoichiometry N” value in data set [1] and in data set [2] was 2 throughout.

B3: vimentin ΔNrod (coil1B and coil2, residues 150-404) (domain or fragment)
chain: not shown
notes: vimentin, human, coil1B and coil2 domains, residues 150-404; theoretical monomer mass printed as 30.2 kDa; source: denatured in 8 M urea and re-natured by step-wise dialysis before analysis
For the protein B3, the “stoichiometry N” value is 2 and 4 in data set [1]; 2 in data set [2].

(Values after PMC10232555, “Molecular structure of soluble vimentin tetramers” (Scientific Reports, 2023).)
